Assay results from PMC2978286 (Journal of cardiovascular pharmacology, 2010).

Target: β2AR-YFP (UniProt P07550 1-413)
Experiment: FRET or BRET

BRET ratio (basal): 0.23
BRET ratio (with ISO and SDF-1): 0.42
B1: CXCR4-RLuc (receptor, UniProt P61073 1-352, looked up)
chain: MEGISIYTSDNYTEEMGSGDYDSMKEPCFREENANFNKIFLPTIYSIIFLTGIVGNGLVILVMGYQKKLRSMTDKYRLHLSVADLLFVITLPFWAVDAVANWYFGNFLCKAVHVIYTVNLYSSVLILAFISLDRYLAIVHATNSQRPRKLLAEKVVYVGVWIPALLLTIPDFIFANVSEADDRYICDRFYPNDLWVVVFQFQHIMVGLILPGIVILSCYCIIISKLSHSKGHQKRKALKTTVILILAFFACWLPYYIGISIDSFILLEIIKQGCEFENTVHKWISITEALAFFHCCLNPILYAFLGAKFKTSAQHALTSVSRGSSLKILSKGKRGGHSSVSTESESSSFHSS
